Results: publication PMC6657692 (Cellular microbiology, 2018)

T1: Aggregatibacter actinomycetemcomitans leukotoxin (LtxA) (Aggregatibacter actinomycetemcomitans …, UniProt P16462 1-1055)
T1 sequence: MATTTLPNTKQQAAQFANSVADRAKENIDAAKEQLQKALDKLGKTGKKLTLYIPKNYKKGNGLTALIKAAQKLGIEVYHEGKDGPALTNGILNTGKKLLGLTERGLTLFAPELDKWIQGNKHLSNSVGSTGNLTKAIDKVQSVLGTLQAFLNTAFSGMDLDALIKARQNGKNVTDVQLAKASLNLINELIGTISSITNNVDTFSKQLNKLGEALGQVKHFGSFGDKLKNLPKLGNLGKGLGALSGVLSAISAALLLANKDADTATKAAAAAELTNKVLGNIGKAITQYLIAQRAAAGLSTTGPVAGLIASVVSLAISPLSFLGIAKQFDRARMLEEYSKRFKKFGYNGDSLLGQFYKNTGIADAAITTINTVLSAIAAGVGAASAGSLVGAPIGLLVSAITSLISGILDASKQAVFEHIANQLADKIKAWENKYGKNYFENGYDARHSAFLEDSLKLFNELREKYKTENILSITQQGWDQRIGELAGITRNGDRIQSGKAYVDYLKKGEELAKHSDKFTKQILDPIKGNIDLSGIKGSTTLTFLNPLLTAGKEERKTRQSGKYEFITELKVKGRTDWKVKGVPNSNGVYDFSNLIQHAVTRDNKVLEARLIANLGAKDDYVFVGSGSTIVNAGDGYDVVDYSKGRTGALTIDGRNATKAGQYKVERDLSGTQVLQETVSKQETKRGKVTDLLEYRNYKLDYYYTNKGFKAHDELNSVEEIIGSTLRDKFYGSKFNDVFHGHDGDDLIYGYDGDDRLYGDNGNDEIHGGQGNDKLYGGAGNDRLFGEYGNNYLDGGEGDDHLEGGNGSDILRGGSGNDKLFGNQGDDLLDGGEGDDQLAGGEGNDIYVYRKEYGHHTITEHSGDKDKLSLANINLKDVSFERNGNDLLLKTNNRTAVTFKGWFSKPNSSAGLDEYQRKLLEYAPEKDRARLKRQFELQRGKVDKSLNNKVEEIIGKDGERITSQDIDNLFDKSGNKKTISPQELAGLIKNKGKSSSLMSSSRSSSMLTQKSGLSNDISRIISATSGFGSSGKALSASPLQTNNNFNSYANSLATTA


target: T1, Aggregatibacter actinomycetemcomitans …; test: SPR

Binder	Ka	Kd	koff	kon
αL cytoplasmic tail peptide (integrin αL, LFA-1 α subunit) (peptide) peptide: CKVGFFKRNLKEKMEAGRGVPNGIPAEDSEQLASGQEAGDPGSLKPLHEKDSESGGGKD	6.9e+07 M⁻¹	15 nM	0.00012 s⁻¹	8500 M⁻¹ s⁻¹
CGQEAGDPGSLKPLHEKDSESGGGKD [αLC peptide (C-terminal, membrane-distal part of the αL cytoplasmic tail)]	370000 M⁻¹	–	–	–
CKVGFFKRQYKEMMEEANGQIAPENGTQTPSPPSEK [αX cytoplasmic tail peptide (integrin αX)]	5.7e+06 M⁻¹	180 nM	0.022 s⁻¹	130000 M⁻¹ s⁻¹
CLKSQWNNDNPLFKSATTTVMNPKFAES [β2C peptide (C-terminal part of the β2 cytoplasmic tail)]	2e+07 M⁻¹	51 nM	0.00031 s⁻¹	6100 M⁻¹ s⁻¹
CKALIHLSDLREYRRFEKEKLKSQ [β2N peptide (N-terminal part of the β2 cytoplasmic tail)]	9.6e+06 M⁻¹	110 nM	0.00063 s⁻¹	6100 M⁻¹ s⁻¹
CKLGFFKRQYKDMMSEGGSPGAEPQ [αM cytoplasmic tail peptide (integrin αM)]	2.5e+06 M⁻¹	400 nM	0.011 s⁻¹	28000 M⁻¹ s⁻¹
CKVGFFKRNLKEKMEAGRGVPNGI [αLN peptide (N-terminal, membrane-proximal part of the αL cytoplasmic tail)]	6.6e+07 M⁻¹	16 nM	0.00013 s⁻¹	8400 M⁻¹ s⁻¹
CKLLITIHDRKEFAKFEEERARAKWDTANNPLYKEATSTFTNITYRGT [β3 cytoplasmic tail peptide (integrin β3)]	4.4e+06 M⁻¹	230 nM	0.0059 s⁻¹	26000 M⁻¹ s⁻¹
CKALIHLSDLREYRRFEKEKLKSQWNN [β2N2 peptide (longer N-terminal part of the β2 cytoplasmic tail, with WNN)]	1.1e+08 M⁻¹	9.4 nM	0.00013 s⁻¹	14000 M⁻¹ s⁻¹
CKALIHLSDLREYRRFEKEKLKSQWNNDNPLFKSATTTVMNPKFAES [β2 cytoplasmic tail peptide (integrin β2, LFA-1 β subunit)]	2.4e+08 M⁻¹	4.2 nM	0.0001 s⁻¹	24000 M⁻¹ s⁻¹
